{"source": "the nanobody polyreactivity screen of Harvey et al. (2022)", "data": [{"experiment": "yeast display, Sf9 membrane polyspecificity reagent, FACS + sequencing; frameworks hold sequencing errors", "outline": "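A nanobody's polyreactivity label depends on the gate it was sorted from. Yeast display cells were stained with 10% biotinylated, detergent-solubilized Sf9 membrane reagent for 1 hour at 4 °C, enriched on streptavidin microbeads and sorted by FACS. The low and high (top ~1%) gates were set on anti-HA fluorescence for expression and streptavidin fluorescence for reagent binding.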", "values": [{"sequence": "QVQLVESGGGLVQAGGSLRLSCAASGRIFTANAMGWYRQAPGKERELVAAISWRGGSTYYADSVKGRFTISRDNAKNTVYLQMNSLKPEDTAVYYCNKVGATWRQWFGYWGQGTQVTVSS", "polyreactivity (PSR sort gate)": "high polyreactivity"}, {"sequence": "QVQLVESGGGLVQAGGSLRLSCAASGGIFGANAMGWYRQAPGKERELVAAITWRGGSTYYADSVKGRFTISRDNAKNTVYLQMNSLKPEDTAVYYCAKSFVRYKGRYYWGQGTQVTVSS", "polyreactivity (PSR sort gate)": "high polyreactivity"}, {"sequence": "QVQLVDSGGGLVQAGGSLRLSCAASGSTVTSYAMGWYRQAPGKERELVAAITYGSGTTYADSVKGRFTISRDNAKNTVYLQMNSLKPEDTAVYYCAADFYYPVLGHGFPTYEYDYWGQGTQVTVSS", "polyreactivity (PSR sort gate)": "low polyreactivity"}, {"sequence": "QVQLVESGGGLVQAGGSLRLSCAASGFTFVGYAIGWYRQAPGKERDMVAAITRRGGSTYYADSVKGRFTISRDNAKNTVYLQMNSLKPEDTAVYYCNKSSYRISVPRYDYWGQGTQVTVSS", "polyreactivity (PSR sort gate)": "high polyreactivity"}, {"sequence": "QVQLVESGGGLVQAGGSLRLSCAASGSIFKANTMGWSRQAPGKERELVAAISGSGGRTRYADSVRGRFTISRDNAKNTVYLQMNSLKPDVTAVYYCAATDRGGYYYWGQGTQVTVSS", "polyreactivity (PSR sort gate)": "high polyreactivity"}, {"sequence": "QVQLVESGGGLVQAGGTLRLSCAASRITFWYYARGWYIQAPGKERELVAAITSGGSTYYADSVKGRFTISRDNAKNTVYLQMNSLKPEDTAVYYCAKDSVWGAKNLTSYKYYYWGQGTQVTGSS", "polyreactivity (PSR sort gate)": "low polyreactivity"}, {"sequence": "QVQLVESGGGLVQAGGSLRLSCAASGSTFVKYVMGWYRQAPGKERELVAAISRSSVRTSYADSVKGRFTISRDNAKNTVYLQMNSLKPEDTAVYYCAAEYQYGGTTFDYWGQGTQVTVSS", "polyreactivity (PSR sort gate)": "high polyreactivity"}, {"sequence": "QVQLVESGGGVQAGGSLRLSCAASGRTFVPYAMGWYRQAPGKERELVAAISSIGDSTSYADSVKGRFTISRDNAKNTVYLQMNCLKPEDTAVYYFAAAEDRDRLVPKLDYWGQGTQVTVSS", "polyreactivity (PSR sort gate)": "low polyreactivity"}, {"sequence": "QVQLVESGGGLVQAGGSLRLSCAASGSTFPFYVMGWYRQAPGKERELVASITATGSSTYYADSVKGRFTISRDNAKNTVYLQMNRLKPEDTAVYYCAAPYFGWYLGYYWYREYDYWGQGTQVTVSS", "polyreactivity (PSR sort gate)": "low polyreactivity"}, {"sequence": "QVQLVESGGGLVQAGGSLRLSCAASGRILYSYAMGWYRQAPGKERELVASISLSGGRTYADSVKGRFTISRDNAKNTVYLQMNSLKPEDTAVYYCNASIRTSRYLWQFDYWGQGTQVTVSS", "polyreactivity (PSR sort gate)": "high polyreactivity"}, {"sequence": "QVQLVESGGGLVQAGGRLRLSCAASGSIFRLYAMGWYRQAPGKEREFVAGITRRTGSTYYADSVKGRFTISRDNAKNTVNLQMNSLKPEDTAVYYCAKRDARATPFGYWGQGTQVTVSS", "polyreactivity (PSR sort gate)": "high polyreactivity"}, {"sequence": "QVQLVESGGGLVQAGGSLRISCAASGRTLRPNAMGWYRQAPGKERELVAAITWSGGRTYYADSVKGRFTISRDNAKNTVYLQMNSLKPGDTAVYYCAADYGYYRGGVYFQKLKFDYWGQGTQVTVSS", "polyreactivity (PSR sort gate)": "high polyreactivity"}, {"sequence": "QVQLVESGGGLVQAGGSLRLSCAASGFTFSSYDMGWYRQAPGKDRDLVAAIDFIDGSTYYADSVKGRFTISRDNAKKTVYLQKNSLKPEDTAVYYCAADPVFKVELWPVRVRVDYWGQGTQVTVSS", "polyreactivity (PSR sort gate)": "low polyreactivity"}, {"sequence": "QVQLVESGGGLVQAGGSLRLSCAASGRISSQYAMGWYRQAPGKERELVAAISTSGDRTYYADSVKGRFTISRDNAKNTVYLQMNSLKPEDTAVYYCAKDGPYTYGRDIYEYWGQGTQVTVSS", "polyreactivity (PSR sort gate)": "low polyreactivity"}, {"sequence": "QVQLVESGGGLVQAGGSLRLSCAASGSTSLIYAMGWYRQAPGKERELVARISGSGGSTFYADSVKGRFTISRDNAKNTVFLQMNSLKPEDTAVYYCAAYIRGRRYNWATVGYNYWGQGTQVTVSS", "polyreactivity (PSR sort gate)": "high polyreactivity"}, {"sequence": "QVQLVESGGGLVQAGGSLRLSCAASGRIFIWYAMGWYRQAPGKERELVAAIDRSGASTYYADSVKGRFTISRDNAKNTVYLQMNSLKPEDTAVYYCAARRDVLWFQYPYGYWGQGTQVTVSS", "polyreactivity (PSR sort gate)": "low polyreactivity"}, {"sequence": "QVQLVESGGGLVQAGGSLRLSCAASGFIFPLYTMGWYRQAPGKERELVAAITCSGGSTYYADSVKGGFTISRDNAKNTVYLQMNSLKPEDTAVYYCAKDYTYGMDWGQGTQVTVSS", "polyreactivity (PSR sort gate)": "low polyreactivity"}, {"sequence": "QVQLVESGGGLVQAGGSLRLSCAASGSTFDVYAMGWYRQAPGKERELVATISTSGGDTYYADSVKGRFTISRDNAKNTVYLQMNSLNPEDTAVYYCNVSASYYSPDPKVLVRYDYWGQGTQVTVSS", "polyreactivity (PSR sort gate)": "low polyreactivity"}, {"sequence": "QVQLVESGGGLVQAGGSLRLIFAASGIIFGRYPMGWYRPAPGKERELVAAITSGGSTSYADSVKGRFTISRDNAKNTVYLQMNSLKPEDTAVYYCAVVFVWGWPGYYWGQGTQVTVSS", "polyreactivity (PSR sort gate)": "high polyreactivity"}, {"sequence": "QVQLVESGGGLVQAGGSLRLSCAASGSTFVVNAMGWYRPAPGKERELVAAIDGSDGSTYYADSVKGRFTISRDNAKNTVYFQMNSLKPEDTAVYYCAAEVLGRPDVENDYWGQGTQVTVSS", "polyreactivity (PSR sort gate)": "low polyreactivity"}, {"sequence": "QVQLVESGGGLVQAGGSLRLSCAASGSIIYTNAMGWYRQAPGKERELVAAITGTTTTNYADSVKGRFTISRDNAKNTVYLQMNSLKPEDPAVYYCNADYDRSRVYYSVELYDYWGQGTQVTVSS", "polyreactivity (PSR sort gate)": "low polyreactivity"}, {"sequence": "QVQLVESGGGLVQAGGSLRLSCAASGRTFPYYTMGWYRQAPGKERELVAAITSGGSTHYADSVKGRFTISRDNAKNTVYLQMNSLKPEDTAVYYCAADLFYHSYGYEYWGQGTQVTVSS", "polyreactivity (PSR sort gate)": "low polyreactivity"}, {"sequence": "QVQLVESGGGLVQAGGSLRLSCAASGSIFYLYAMGWYRQAPGKERELVAAITSGDSTTYADSVKGRFTISRDNAKNTVYLQMNSLKPEDTAVYYCAADWPGLVGYHNSAENDYWGQGTQVTVSS", "polyreactivity (PSR sort gate)": "low polyreactivity"}, {"sequence": "QVQLVESGGGLVQAGGSLRLSCAASGFTFDSYAMGWYRQAPGKERELVAAITWDGGSTYYADSVKGRYTISRDNAKNTVYLQMNSLKPEETAVYYCAADFGTISIDVYSWMDYWGQGTQVTVSS", "polyreactivity (PSR sort gate)": "low polyreactivity"}, {"sequence": "QVQLVESGGGLVQAGGSLRLSCAASGFIFYRNTMGWYRQAPGKEREFFAAITRSGGITRYADSVKGRFTISRDNAKNTVYLQMNSLKPEDTAVYYCAARRWIADPGRIMDYWGQGTQVTVSS", "polyreactivity (PSR sort gate)": "high polyreactivity"}, {"sequence": "QVQIVESGGGIVQAGGSLRLSCAASGLTFHQYTMGWYRQAPGKERELVAAISSGGSTNYADSVKGRFTISRDNAKNTVFLQMNSLKPEDTAVYYCAADKYYFAYDYWGQGTQVNVSS", "polyreactivity (PSR sort gate)": "low polyreactivity"}, {"sequence": "QVQLVESGGGLVQAGGSLRLSCAASGSIYGYYVMGWNRQAPGKERELVAAISRSGGSTYYADSVKGRFTISRDNAKNTFYLQMNSLKPEDTGVYYCAASFAVRYPRLDYWGQGTQVTVSS", "polyreactivity (PSR sort gate)": "high polyreactivity"}, {"sequence": "QVQLVESGGGLVQAGGSLRLSCAASGSTFCYYDMGWYRQAPGKERELVATISSGGGTNYAASVKGRFTISRDNAKNTVYLQMNSLKPEDTAVYYCAAQYVIRITFYATYWEDYWGQGTQVTVSS", "polyreactivity (PSR sort gate)": "low polyreactivity"}, {"sequence": "QVQLVESGGGLVQAGGSLRLSCAASGIIFLNYVMGWYRQAPGKERELVAAITTSGASTYYADSVKGRFTISRDNAKNTVYLQMNSLKPEDTAVYYCAAVFRHARYRYDYWGLGTQVTVSS", "polyreactivity (PSR sort gate)": "high polyreactivity"}, {"sequence": "QVQLVESGGGLDQAGGSLRLSCAASGFIFVRNAMGWYRQAPGKERELVAAITGRGGRTYYADSVKGRFTISRDNAKNTVYLQMNSLKPEDTAVYYCAKDSPDDHFGYWGQGTQVTVSS", "polyreactivity (PSR sort gate)": "high polyreactivity"}, {"sequence": "QVQLVESGGGLVQAGGSLRLSCAASGSIFYRNVMGWYRQAPGKERELVAAISWSGGSTYYADSVKGRFTISRDNAKNTVYLQMNSLKPEDTAVYYCAADIPKTGYPYAFEYWGQGTQVTVSS", "polyreactivity (PSR sort gate)": "low polyreactivity"}, {"sequence": "QVQLVESGGGLVQAGGSLRLSCAASGNTFRDYAMGWYRQAPGKERELVAAITSSGARTYYADSVKGRFTISRDNAKNTVYLQMNSLKPEDTAVYYCAADWSGYYTYDYWGQGTQVTVSS", "polyreactivity (PSR sort gate)": "low polyreactivity"}, {"sequence": "QVQLVESGGGLVQAGGSLRLSCAASGSIFIGYAMGWYRQAPGKERELVAAISWSGDSTYYADSVKGRFTISRDNAKNTVYLQMNSLKPEDTAVYYCARDKWGLRYAPTVDYWGQGTQVTVSS", "polyreactivity (PSR sort gate)": "high polyreactivity"}, {"sequence": "QVQLVESGGGLVQAGGSLRLSCAASGLIFSWNAMGWYRQAPGKEWELVASISYSGGRTYYADSVKGRFTISRDNAKNTVYLQKNSLKPEDTAVYYCAADTNATTDPQMDYWGQGTQVTVSS", "polyreactivity (PSR sort gate)": "low polyreactivity"}, {"sequence": "QVQLVESGGGLVQAGGSLRLSCAASGRTFRVYTMGWYRQAPGKERELVAAISSRGGSTYYADSVKGRFTISRDNAKNTVYLQMNSLKPEDTAVYYCAAVSYYPARYGYWGQGTQVTVSS", "polyreactivity (PSR sort gate)": "high polyreactivity"}, {"sequence": "QVQLVESWGGLVQAGGSLRLSCAASGRTFYYYTMGWYRQAPGKEREFVAAISWSGGGTYYADSVKGRFTISRDNAKNTDYLQMNILKPEDTAVYYCATGPRIRYDYWGQGTQVNVSS", "polyreactivity (PSR sort gate)": "high polyreactivity"}, {"sequence": "QVQLVESGGGLVQAGGRLRLSCAASGISFDWYAMGWYRQAPGKERELVAAITVGASTYADSVKGRFTISRDNAKNTDYLQMNSLIPEDTAVYYCTFPVFVDYGFYTIGHDYWGQGTQVTVSS", "polyreactivity (PSR sort gate)": "low polyreactivity"}, {"sequence": "QLQLVESGGGLVQAGGSLRLSCAASGSTFVVYARGWYRQAPGKERELVAAITRDDGRTYYADSVKGRFTISRDNAKNTVYLQMNSLKPEDTAVYYCAAGYSFGYGYWGQGTQVTVSS", "polyreactivity (PSR sort gate)": "low polyreactivity"}, {"sequence": "QVQLVESGGGLVQAGGSLRLSCAASGRTLGYKAMVWYRQAPGKERELVAAISWSGGATYYADSVKGRFTISRDNAKNTVYLQMNSLKPEDTAVYYCAALNNRYPLYNYWGQGTQVTVSS", "polyreactivity (PSR sort gate)": "low polyreactivity"}, {"sequence": "QVQLVESGGGLVHAGGSLRISCAASGRTFSRNAMGWYRQAPGKERELVATISRRGGSTNYADSVKGRFTISRDYAKNTVYLQMNSLKPDDTAVYYCAAGYRVRDDKVYGIVRPMDYWGQGTQVTVSS", "polyreactivity (PSR sort gate)": "high polyreactivity"}, {"sequence": "QVQIVESGGVLDHAGGSLRLSCAATVGTSIPNAMGWYRQAPGKERELVAAITRSGGRTYYADSVKGRFTISRDNATNTVYLQMNSLKREDTAVYYCAARVRTTSVRGRYDYWGQGTQVTVSS", "polyreactivity (PSR sort gate)": "high polyreactivity"}, {"sequence": "QVQLVESGGGLVQAGGSLRLSCAASGIIIWGNAMAWYRQAPGKERELVAAISSSSGSTYYADSVKGRFTISRDNAKNTVYLQMNRLKPVDTAVYYCAVDTPRSYRAQGAYYYWGQGTQVTVSS", "polyreactivity (PSR sort gate)": "low polyreactivity"}, {"sequence": "QDQLVESGGGLVQAGGSLRLSCAASGLIFGYYAMGWYRQAPGKERELVAVISYSGGSTYYADSVKGRYTISRDNAKNTVYFQMNSMKPEDTAVYYCNTYRAYYRHTKEYGYWGQGTLVTVSS", "polyreactivity (PSR sort gate)": "high polyreactivity"}]}]}
